# Bridge positions count the residues as written; N and C are the ends. Square brackets hold non-standard residues; d marks the D form. Ends that are not written are not given here. dPra = C#CC[C@@H](N)C(=O)O
# What was measured:
# Il10 = Il10 (Homo sapiens, UniProt P22301); experiment: Binding of β-bodies with the target compound (Table 1), Il10; conditions: Purpose Il10; tested for binding with the target compound
# HRMVRG-PEGA1900 = experiment: Binding to hexapeptide beads, green fluorescence associated with the beads; conditions: protein overexpressed in E. coli
# Description: The fusion protein as well as EGFP was overexpressed in E. coli and purified from the cell lysate using a PEGA solid support with the hexapeptide partner, […] NO: 4), attached.
# Papain = target: T1, Papain (Carica papaya, UniProt P00784); experiment: Binding of β-bodies with the target compound (Table 1), Papain; conditions: Purpose Papain; tested for binding with the target compound
# T1 sequence (P00784 134-345): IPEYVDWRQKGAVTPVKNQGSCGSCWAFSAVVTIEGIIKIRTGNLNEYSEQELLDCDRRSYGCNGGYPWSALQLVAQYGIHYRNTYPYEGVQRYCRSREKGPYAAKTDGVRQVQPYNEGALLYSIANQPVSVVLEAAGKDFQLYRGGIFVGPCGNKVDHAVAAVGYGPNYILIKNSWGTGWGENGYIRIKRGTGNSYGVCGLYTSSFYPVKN
# Il1 = experiment: Selectivity assay GFP vs. IL1: beads incubated with ROX-IL1; type: binding; conditions: ROX-IL1 100 nM, both bead types incubated at the same time
# Description: The same experiment was repeated with IL1.
# GFP = GFP 60 nM, both bead types incubated at the same time
# Description: GFP (60 nM) was incubated with different β-body beads at the same time, a first type of β-body beads specific for GFP (β-body SEQ ID NO: 1;
# […]) and a second type of β-body beads specific for IL1 (β-body SEQ ID NO: 5).
# eGFP = eGFP (Aequorea victoria, UniProt P42212, F64L/H231L/S65T); conditions: Purpose eGFP; tested for binding with the target compound
# Interleukin 2 = Interleukin 2 (Homo sapiens, UniProt P60568); experiment: Sandwich binding assay on PEGA beads, IL2 model
# Interleukin 2, sequence (P60568 21-153, species assumed): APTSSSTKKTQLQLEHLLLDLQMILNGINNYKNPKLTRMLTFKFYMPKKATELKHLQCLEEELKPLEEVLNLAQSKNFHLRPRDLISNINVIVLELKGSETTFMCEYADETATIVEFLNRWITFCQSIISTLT
# Description: For sandwich assays β-bodies identified as described in Examples 1 and 2 were synthesized by standard Fmoc-based solid phase peptide synthesis on biocompatible PEGA-beads (e.g. PEGA1900 which has a porosity allowing penetration of proteins up to 70 kDa). PEGA beads are available from Sigma Aldrich.
# The sandwich binding assay was performed as follows: four beads with ligand C prepared as described above were added to 50 μL MilliQ water in a microtiter well containing 100 nM of the peptide D. The well was imaged with an ICX73 fluorescence microscope (Olympus) using a ROX filter cube.
# The intensity of the fluorescence is a measure of the concentration of IL2 and the affinity of the interaction. The result obtained after 3 min. incubation is shown in FIG. 10 and after 20 min. incubation in FIG. 1D.
# Il2 = Il2 (Homo sapiens, UniProt P60568); experiment: Binding of β-bodies with the target compound (Table 1), Il2; conditions: Purpose Il2; tested for binding with the target compound
# Il2, sequence (P60568 21-153, species assumed): as above
# Il10, sequence (P22301 19-178, species assumed): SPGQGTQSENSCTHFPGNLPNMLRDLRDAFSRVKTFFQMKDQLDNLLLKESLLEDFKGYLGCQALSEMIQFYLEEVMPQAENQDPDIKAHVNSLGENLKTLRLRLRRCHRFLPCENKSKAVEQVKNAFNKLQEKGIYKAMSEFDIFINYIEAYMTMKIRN
substance,measurement,setting,value
ATNTLTMTWPGRTNTDTFTW (Designed peptide) [SEQ ID NO: 20],Binding,Il10,High
"EGFP: Enhanced Green Fluorescent Protein, overexpressed in E. coli; control without β-body",Binding to HRMVRG-PEGA1900 (green fluorescence associated with the beads),HRMVRG-PEGA1900,does not
"IHV-abu(N3)-VTTRTMPGHPIAGADA-pra-TG (IHV[dAbu(N3)]VTTRTMPGHPIAGADA[dPra]TG; triazole 4-21 (inferred); also: X4 listed as D-3-azido-2-aminobutanoic acid, mods say azidohomoalanine) [SEQ ID NO: 49]",Binding,Papain,Medium
TETKTVTITRPKMTWTFTHTVTG (Designed peptide; PEPTIDE (1)..(23) GFP) [SEQ ID NO: 1],Binding of β-body beads to IL1,Il1,only β-body beads specific for IL1 underwent binding
same,Binding of β-body beads to GFP,GFP,underwent binding
same,Binding,eGFP,High
TKTRTYTIPGERYTDTWA (Designed peptide) [SEQ ID NO: 21],Binding,Il10,High
TRTLTYTEPGITQTKTEA (Designed peptide) [SEQ ID NO: 14],ROX fluorescence accumulation in the beads,"Interleukin 2; ligand 3 beads + 100 nM ligand 4, Interleukin 2 50 nM, 3 and 20 min",positive signal
same,ROX fluorescence accumulation in the beads,"Interleukin 2; ligand 3 beads + 100 nM ligand 4, Interleukin 2 50 nM, 3 and 20 min, listed as D",accumulation of significant ROX fluorescence
same,ROX fluorescence accumulation in the beads,"Interleukin 2; ligand 3 beads + 100 nM ligand 4, without IL2 (interaction between the two β-bodies)",no signal
same,ROX fluorescence accumulation in the beads,"Interleukin 2; ligand 3 beads + 100 nM ligand 4, without IL2 (interaction between the two β-bodies), listed as D",No fluorescence accumulation over background
same,Binding,Il2,High
